Results on three molecules are retold here after US20240041922A1 (MONASH UNIVERSITY, published 2024).

The target in assay [1] is CCR5 (as used in the NAMPTcif competition assay of FIG. 9b). Put plainly: competition assay: inhibition of NAMPT binding to CCR5 by NAMPTcif (FIG. 9b); format not described.
In assay [2] the target is T1, human recombinant NAMPT(1) (recombinant human visfatin, PeproTech) (human, UniProt P43490 27-491, limits assumed).
T1 construct: Bought protein; also called hrNAMPT(1); hrNAMPT source 1
T1 sequence (P43490 27-491 limits assumed): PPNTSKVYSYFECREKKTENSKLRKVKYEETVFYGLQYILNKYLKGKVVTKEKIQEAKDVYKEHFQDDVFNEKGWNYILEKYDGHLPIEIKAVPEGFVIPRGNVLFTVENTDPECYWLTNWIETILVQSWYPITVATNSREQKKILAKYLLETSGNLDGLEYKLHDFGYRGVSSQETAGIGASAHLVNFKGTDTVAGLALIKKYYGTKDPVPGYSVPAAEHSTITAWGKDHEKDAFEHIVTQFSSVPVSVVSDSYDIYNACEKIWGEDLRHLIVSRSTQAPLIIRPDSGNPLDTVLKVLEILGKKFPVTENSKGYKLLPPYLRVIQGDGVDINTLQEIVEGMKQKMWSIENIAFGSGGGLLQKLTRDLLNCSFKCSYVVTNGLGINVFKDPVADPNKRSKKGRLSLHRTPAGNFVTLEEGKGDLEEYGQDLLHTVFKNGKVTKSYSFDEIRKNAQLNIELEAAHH
Put plainly: ELISA: plate coated with 20 nM GST-hrCCR5, 0-800 nM hrNAMPT(1), biotinylated anti-NAMPT detection, BSA signal deducted, non-linear fit. As to the method:
Wells were blocked for 1 h at room temperature with 1% BSA in PBS containing 0.05% Tween-20 (PBS-T).
(In an ELISA, binding on a coated surface is turned into a signal by an enzyme label.)

For assay [3], the target named is T2, recombinant mouse CCR5 (MyBioSource) (mouse, UniProt P51682 1-354, limits assumed).
T2 construct: Coated on the ELISA plate at 20 nM; also called mrCCR5; mouse recombinant CCR5
T2 sequence (P51682 whole entry): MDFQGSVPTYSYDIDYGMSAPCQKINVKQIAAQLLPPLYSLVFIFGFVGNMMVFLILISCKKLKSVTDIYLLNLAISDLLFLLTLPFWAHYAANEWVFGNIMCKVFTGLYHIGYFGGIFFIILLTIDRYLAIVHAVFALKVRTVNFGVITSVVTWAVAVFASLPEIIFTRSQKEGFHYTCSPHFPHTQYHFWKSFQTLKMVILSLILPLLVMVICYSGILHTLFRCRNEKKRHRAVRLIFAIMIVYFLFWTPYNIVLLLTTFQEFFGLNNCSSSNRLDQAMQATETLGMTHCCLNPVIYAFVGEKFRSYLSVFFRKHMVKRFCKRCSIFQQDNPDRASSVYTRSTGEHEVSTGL
The assay can be described thus: competitive ELISA: plate coated with 20 nM mrCCR5, 0-400 nM mrCCL4 with 100 nM hrNAMPT(1) as competitor, bound hrNAMPT(1) detected. As to the method:
Then, wells were blocked for 1 h at room temperature with 1% BSA in PBS containing 0.05% Tween-20 (PBS-T).

B1: NAMPT402-491 (recombinant C-terminal 'cytokine finger' fragment of NAMPT) (ligand)
chain: MSYVVTNGLGVNVFKDPVADPNKRSKKGRLSLHRTPAGNFVTLEEGKGDLEEYGHDLLHTVFKNGKVTKSYSFDEVRKNAQLNIEQDVAPHHHHHHH
notes: Made in E. coli BL21(DE3) from pET22b(+) and purified on HisTap; also called NAMPTcif; cif
One may read the IC50 as the concentration that gives 50% inhibition. As for B1, the IC50 in assay [1] turned out to be 21.5 nM.

B2: GST-fused recombinant human CCR5 (Abcam) (receptor)
chain: not shown
notes: Coated on the ELISA plate at 20 nM; GST is put first here only by convention; also called hrCCR5; human recombinant CCR5; not shown: GST fusion partner
In general, Kd refers to the equilibrium constant for the complex coming apart. As to B2, the Kd in assay [2] came to 172 nM.

B3: recombinant murine CCL4/MIP-1beta (PeproTech) (ligand, mouse, UniProt P14097 24-92, looked up)
chain: APMGSDPPTSCCFSYTSRQLHRSFVMDYYETSSLCSKPAVVFLTKRGRQICANPSEPWVTEYMSDLELN
notes: also called mrCCL4; mouse recombinant CCL4
B3: in assay [3], the IC50 amounted to 34.4 nM.
